Experimental data published in patent US20090004198A1 (published 2009).

Target: T1, GST-HCMV-AD1 fusion protein (human cytomegalovirus (HCMV), UniProt P06473 552-635)
T1 construct: also called GST fused HCMV-AD1; not shown: GST (glutathione S-transferase) fusion partner
Experiment: BIAcore (SPR); antigen fixed to the sensor chip, antibody as analyte; GST protein as control

T1 sequence (P06473 552-635 limits assumed): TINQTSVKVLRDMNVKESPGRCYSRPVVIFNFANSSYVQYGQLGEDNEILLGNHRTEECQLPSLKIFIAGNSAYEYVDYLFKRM

B1: anti-HCMV antibody (G3D No. 9) (antibody, human IgG1, kappa, V domains shown)
VH: QVQLVESGGGMVQPGKSLRLSCAASGFTFSSYGMHWVRQAPGRGLEWVAIIWYDGDNTWYADSVKGRITISRDNSKNMLYLQMDSLRVEDTALYYCVRGGLGYFNGWDVDHWGQGTLVTVSS
VL: DVVMTQSPLSLPVTLGQPASISCRSSESLVYSDGNTYLNWFQQRPGQSPRRLISKVSNRDSGVPDRFSGSGSGTDFTLKISRVEAEDVGVYYCMQGSHWPPYTFGQGTKLEIKR
notes: also called G3D No. 9 antibody; anti-HCMV monoclonal antibody
Kd: 11.6 pM
